This assay addresses Wild-type spindle pole bodies (SPBs) purified from budding yeast (strain BGY72-8A: Spc97-TAP, Spc42-mCherry) (budding yeast) (UniProt P38863). Put plainly: laser trap rupture force.

Chain of Microtubules assembled from bovine brain tubulin (Q6B856 whole entry, looked up): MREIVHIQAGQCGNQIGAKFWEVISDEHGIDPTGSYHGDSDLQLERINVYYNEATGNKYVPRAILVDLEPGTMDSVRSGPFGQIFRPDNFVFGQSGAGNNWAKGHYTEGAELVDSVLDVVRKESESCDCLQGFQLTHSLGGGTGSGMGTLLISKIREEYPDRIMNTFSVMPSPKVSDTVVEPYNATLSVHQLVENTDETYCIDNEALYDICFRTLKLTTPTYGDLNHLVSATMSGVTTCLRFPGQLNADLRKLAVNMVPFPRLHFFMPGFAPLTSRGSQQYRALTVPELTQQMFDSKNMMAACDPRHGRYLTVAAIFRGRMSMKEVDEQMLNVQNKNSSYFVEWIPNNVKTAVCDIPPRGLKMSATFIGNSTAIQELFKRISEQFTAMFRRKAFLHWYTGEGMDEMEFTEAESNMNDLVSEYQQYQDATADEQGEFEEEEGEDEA
Chain of Wild-type spindle pole bodies (SPBs) purified from budding yeast (strain BGY72-8A: Spc97-TAP, Spc42-mCherry) (budding yeast) (P38863 whole entry, looked up): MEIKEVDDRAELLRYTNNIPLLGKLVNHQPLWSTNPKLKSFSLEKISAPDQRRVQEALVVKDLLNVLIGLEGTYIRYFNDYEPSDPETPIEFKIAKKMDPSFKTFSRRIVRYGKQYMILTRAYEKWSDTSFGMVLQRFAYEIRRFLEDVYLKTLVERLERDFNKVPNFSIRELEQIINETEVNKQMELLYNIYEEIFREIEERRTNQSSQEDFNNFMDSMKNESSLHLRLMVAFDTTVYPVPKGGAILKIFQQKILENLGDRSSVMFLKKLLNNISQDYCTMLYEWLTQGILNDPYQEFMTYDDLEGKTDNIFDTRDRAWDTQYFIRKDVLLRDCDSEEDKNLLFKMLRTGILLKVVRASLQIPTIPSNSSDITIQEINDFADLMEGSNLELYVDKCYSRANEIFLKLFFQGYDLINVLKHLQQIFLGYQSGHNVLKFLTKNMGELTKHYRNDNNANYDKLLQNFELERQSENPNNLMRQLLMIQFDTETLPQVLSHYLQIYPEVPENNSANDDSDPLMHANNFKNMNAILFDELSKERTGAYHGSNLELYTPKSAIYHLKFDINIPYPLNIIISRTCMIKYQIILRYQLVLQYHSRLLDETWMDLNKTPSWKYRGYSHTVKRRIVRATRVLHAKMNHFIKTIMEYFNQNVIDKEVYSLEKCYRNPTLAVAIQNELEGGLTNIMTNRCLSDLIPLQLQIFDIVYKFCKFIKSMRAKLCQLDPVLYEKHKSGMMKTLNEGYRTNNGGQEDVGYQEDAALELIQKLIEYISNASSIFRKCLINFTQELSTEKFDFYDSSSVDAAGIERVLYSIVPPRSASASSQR

“Microtubules assembled from bovine brain tubulin (from UniProt Q6B856 1-445) (complex)” came in with a raw mean rupture force of 45 pN.

For the origin of these results see PMC5541836.
